From the supplement of paper PMC7877785
± gives the uncertainty stated by the source.

Assay: self-splicing fitness, log relative to wild type (ln ratio); higher = more splicing; Tetrahymena group I intron in knt gene, E. coli kanamycin selection, DiMSum; sequences stand for … in CUCUCU…GGAGGGAAAAGUUAUCAGGCAUGCACCUGGUAGCUAGUCUUUAAACCAAUAGAUUGCAUCGGUUUAAAAGGCAAGACCGUCAAAUUGCGGGAAAGGGGUCAACAGCCGUUCAGUACCAAGUCUCAGGGGAAACUUUGAGAUGGCCUUGCAAAGGGUAUGGUAAUAAGCUGACGGACAUGGUCCUAACCACGCAGCCAAGUCCUAAGUCAACAGAUCUUCUGUUGAUAUGGAUGCAGUUCACAGACUAAAUGUCGGUCGGGGAAGAUGUAUUCUUCUCAUAAGAUAUAGUCGGACCUCUCCUUAAUGGGAGCUAGCGGAUGAAGUGAUGCAACACUGGAGCCGCUGGGAACUAAUUUGUAUGCGAAAGUAUAUUGAUUAGUUUUGGAGUACUCGUGGUCG
Outline: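 Six replicate transformations of E. coli BL21(DE3) with a pET-22b(+) library were grown overnight at 37°C or 30°C. The library randomised all eight P1ex-region intron nucleotides, the intron lying in the knt kanamycin-resistance gene, and plates were LB agar with or without 25 μg/mL kanamycin plus 100 μg/mL carbenicillin, 50 μM IPTG and 0.2% rhamnose. Pooled colonies were amplicon-sequenced on an Illumina HiSeq 2500, and fitness is the DiMSum error-weighted combination of wild-type-normalised replicate fold changes, kanamycin versus none.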

Sequence	self-splicing fitness (ln) (30 °C)	self-splicing fitness (ln) (37 °C)
GACUAGCAAUAUUACGAGAC	-3.56 ± 0.43	-1.76 ± 0.27
AGCAAGCAAUAUUACGAUAA	-2.16 ± 0.12	0.308 ± 0.11
GCAAAGCAAUAUUACGCAAA	-1.95 ± 0.1	-1.58 ± 0.1
UCGCAGCAAUAUUACGACAA	-1.14 ± 0.19	-1.48 ± 0.2
CGCAAGCAAUAUUACGGUUA	-2.32 ± 0.14	-0.121 ± 0.085
GACGAGCAAUAUUACGCUGU	-3.17 ± 0.3	-2.9 ± 0.33
AGCUAGCAAUAUUACGGAGG	-3.54 ± 0.16	-1.33 ± 0.14
CCGGAGCAAUAUUACGAAAC	-1.5 ± 0.23	-0.933 ± 0.2
ACUGAGCAAUAUUACGGCUC		-1.73 ± 0.48
UACCAGCAAUAUUACGGAAU	-2.32 ± 0.093	-1.5 ± 0.1
UGUGAGCAAUAUUACGCGCU	-2.53 ± 0.27	-3.1 ± 0.37
CGGUAGCAAUAUUACGUGCA	-1.61 ± 0.12	-0.501 ± 0.13
CCCGAGCAAUAUUACGCCAU	-3.53 ± 0.35	-2.44 ± 0.33
CGCUAGCAAUAUUACGCCCG	-2.1 ± 0.22	-0.695 ± 0.35
GGUCAGCAAUAUUACGCGGG		-2.61 ± 0.28
UUCUAGCAAUAUUACGAAAA	-1.6 ± 0.14	-0.631 ± 0.13
GCUGAGCAAUAUUACGUCUG	-2.08 ± 0.14	-0.981 ± 0.14
CUGUAGCAAUAUUACGCCUG	-0.759 ± 0.14	0.521 ± 0.16
AACAAGCAAUAUUACGUUAA	-2.55 ± 0.15	-1.67 ± 0.14
CGCAAGCAAUAUUACGUCAA	-3.1 ± 0.12	-2.93 ± 0.14

Sequence	self-splicing fitness (ln) (30 °C)	self-splicing fitness (ln) (37 °C)
CCCCAGCAAUAUUACGAGAG	-3.91 ± 0.23	-2.05 ± 0.17
GGAAAGCAAUAUUACGAGGU	-3.65 ± 0.17	-2.87 ± 0.25
CAACAGCAAUAUUACGGACU	-2.52 ± 0.11	-1.33 ± 0.14
AAGGAGCAAUAUUACGUAAU	-3.8 ± 0.16	-2.27 ± 0.15
GCUUAGCAAUAUUACGAUUA	-1.01 ± 0.11	-1.03 ± 0.1
GGAUAGCAAUAUUACGAGAC	-2.63 ± 0.25	-2.63 ± 0.48
CGAUAGCAAUAUUACGCGCU	-0.899 ± 0.12	-1.02 ± 0.12
ACCUAGCAAUAUUACGCCGG	-0.962 ± 0.13	-0.598 ± 0.17
ACCGAGCAAUAUUACGACGA	-1.16 ± 0.15	-0.75 ± 0.15
UAUUAGCAAUAUUACGCAGC	-3.88 ± 0.24	-2.56 ± 0.31
AAACAGCAAUAUUACGAUGA	-1.34 ± 0.067	-0.0116 ± 0.067
UUAUAGCAAUAUUACGUCUA	-0.963 ± 0.15	-0.336 ± 0.11
GAGAAGCAAUAUUACGUGUC	-3.95 ± 0.27	-2.1 ± 0.33
CGGCAGCAAUAUUACGCUUC		-1.56 ± 0.29
GAAAAGCAAUAUUACGAGCA	-0.889 ± 0.063	-0.307 ± 0.076
AAGUAGCAAUAUUACGUCUA	-0.618 ± 0.09	0.263 ± 0.1
UACUAGCAAUAUUACGUCGC	-4.8 ± 0.46	-3.62 ± 0.24
GCGCAGCAAUAUUACGUUAC	-2.71 ± 0.14	-1.12 ± 0.14
GCUGAGCAAUAUUACGGAUU	-2.33 ± 0.1	-1.26 ± 0.11
